From patent publication US20120039865A1 (YALE UNIVERSITY, published 2012)

T1: mouse sortilin-1 (Sort1; GenBank Accession No. NM 019972) expressed in COS-7 cells (mouse, UniProt Q6PHU5 74-825)
T1 construct: cDNA clone from a mouse library, transfected into COS-7 cells; also called PGRN-R; PGRN receptor
T1 sequence: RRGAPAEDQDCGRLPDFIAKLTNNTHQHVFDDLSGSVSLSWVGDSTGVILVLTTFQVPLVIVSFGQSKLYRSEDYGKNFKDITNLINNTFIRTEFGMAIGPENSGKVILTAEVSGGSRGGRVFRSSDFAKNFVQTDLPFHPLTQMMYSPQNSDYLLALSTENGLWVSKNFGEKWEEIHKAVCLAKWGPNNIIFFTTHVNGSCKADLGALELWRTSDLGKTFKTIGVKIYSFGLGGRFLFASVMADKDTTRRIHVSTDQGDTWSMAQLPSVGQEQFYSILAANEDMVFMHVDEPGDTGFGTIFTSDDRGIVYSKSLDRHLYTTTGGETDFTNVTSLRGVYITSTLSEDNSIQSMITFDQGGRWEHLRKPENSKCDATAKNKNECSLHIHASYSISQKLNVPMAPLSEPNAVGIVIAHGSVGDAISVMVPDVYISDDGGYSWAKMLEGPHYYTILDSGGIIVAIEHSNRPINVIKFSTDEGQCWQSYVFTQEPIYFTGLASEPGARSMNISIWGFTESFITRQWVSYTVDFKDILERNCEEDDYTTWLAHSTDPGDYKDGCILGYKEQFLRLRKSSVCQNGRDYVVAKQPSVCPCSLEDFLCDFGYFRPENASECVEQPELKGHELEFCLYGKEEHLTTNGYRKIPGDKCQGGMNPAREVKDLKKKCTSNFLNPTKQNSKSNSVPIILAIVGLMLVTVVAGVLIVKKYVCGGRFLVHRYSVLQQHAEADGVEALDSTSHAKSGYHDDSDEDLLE

T2: rat sortilin (Sort1) on E18 rat cortical neurons (rat, UniProt O54861 74-825)
T2 construct: Native receptor on cultured rat neurons
T2 sequence: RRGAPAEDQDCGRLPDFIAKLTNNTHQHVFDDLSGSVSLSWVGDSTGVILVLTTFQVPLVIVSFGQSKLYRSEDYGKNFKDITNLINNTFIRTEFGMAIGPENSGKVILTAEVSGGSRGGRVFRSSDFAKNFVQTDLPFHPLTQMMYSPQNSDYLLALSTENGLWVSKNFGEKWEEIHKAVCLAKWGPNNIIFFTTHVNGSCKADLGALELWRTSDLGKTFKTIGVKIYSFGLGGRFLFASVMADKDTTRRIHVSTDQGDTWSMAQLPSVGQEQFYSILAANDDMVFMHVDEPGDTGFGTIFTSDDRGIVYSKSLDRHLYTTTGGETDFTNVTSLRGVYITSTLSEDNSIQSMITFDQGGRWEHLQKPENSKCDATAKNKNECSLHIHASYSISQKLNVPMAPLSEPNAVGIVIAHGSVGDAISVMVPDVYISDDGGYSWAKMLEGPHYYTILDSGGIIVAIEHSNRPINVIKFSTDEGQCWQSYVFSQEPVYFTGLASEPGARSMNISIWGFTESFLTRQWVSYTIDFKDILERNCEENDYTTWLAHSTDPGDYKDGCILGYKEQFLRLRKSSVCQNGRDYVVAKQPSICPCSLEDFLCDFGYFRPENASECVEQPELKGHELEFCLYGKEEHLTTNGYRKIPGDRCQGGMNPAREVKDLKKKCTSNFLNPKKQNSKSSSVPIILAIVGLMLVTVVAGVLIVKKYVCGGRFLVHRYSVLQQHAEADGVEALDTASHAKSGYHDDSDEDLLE

T3: mouse SorCS1 (GenBank Accession No. BC007486) expressed in COS-7 cells (mouse, UniProt Q9JLC4 34-1167)
T3 construct: whole, on cells
T3 sequence (looked up): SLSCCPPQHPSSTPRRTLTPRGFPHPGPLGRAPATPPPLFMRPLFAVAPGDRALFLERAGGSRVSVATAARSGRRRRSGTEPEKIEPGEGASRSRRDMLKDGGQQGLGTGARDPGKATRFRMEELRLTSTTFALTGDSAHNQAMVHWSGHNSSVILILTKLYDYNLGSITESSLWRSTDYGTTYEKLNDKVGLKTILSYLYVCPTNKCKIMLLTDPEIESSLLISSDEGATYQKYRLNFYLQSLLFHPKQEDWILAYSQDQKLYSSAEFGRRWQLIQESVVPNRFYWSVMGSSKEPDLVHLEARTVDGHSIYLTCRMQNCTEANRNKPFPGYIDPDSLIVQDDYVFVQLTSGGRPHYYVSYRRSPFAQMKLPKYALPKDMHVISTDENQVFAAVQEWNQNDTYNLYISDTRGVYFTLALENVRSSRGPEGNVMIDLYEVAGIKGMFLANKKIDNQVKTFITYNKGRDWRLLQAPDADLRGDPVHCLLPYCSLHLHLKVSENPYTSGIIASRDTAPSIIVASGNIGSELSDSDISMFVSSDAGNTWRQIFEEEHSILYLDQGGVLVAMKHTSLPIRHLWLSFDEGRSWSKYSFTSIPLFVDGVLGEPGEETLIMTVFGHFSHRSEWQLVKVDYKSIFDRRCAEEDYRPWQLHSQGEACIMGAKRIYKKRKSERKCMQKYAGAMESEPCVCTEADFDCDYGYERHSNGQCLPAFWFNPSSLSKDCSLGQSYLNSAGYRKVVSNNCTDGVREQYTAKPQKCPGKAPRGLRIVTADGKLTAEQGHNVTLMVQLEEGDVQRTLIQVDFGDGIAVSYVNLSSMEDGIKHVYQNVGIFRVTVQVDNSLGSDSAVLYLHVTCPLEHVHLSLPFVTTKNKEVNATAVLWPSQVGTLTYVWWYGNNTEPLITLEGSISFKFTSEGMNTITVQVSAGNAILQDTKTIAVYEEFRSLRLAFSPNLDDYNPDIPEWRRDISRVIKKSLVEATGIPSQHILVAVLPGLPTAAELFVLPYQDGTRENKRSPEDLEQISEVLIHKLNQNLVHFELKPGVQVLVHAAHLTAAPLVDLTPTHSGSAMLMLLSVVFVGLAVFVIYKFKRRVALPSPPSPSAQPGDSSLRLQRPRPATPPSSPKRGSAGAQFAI


Key:
[1] = molecular target: T1, mouse sortilin-1 (Sort1; GenBank …); assay: AP staining of transfected COS-7 cells
[2] = molecular target: T2, rat sortilin (Sort1) on E18 rat …; assay: AP staining of cultured E18 rat cortical neurons (the neuronal PGRN binding site is identified by the filing as Sort1)
Experimental: Rat (Sprague-Dawley) cortical neurons were isolated from E18 embryos and cultured in vitro for 3-21 days. Cultures were maintained in Neurobasal-A medium supplemented with B27, GLUTAMAX™ (2 mM), sodium pyruvate (1 mM), penicillin, and streptomycin. The binding of 10 nM AP-PGRN or 10 nM AP was detected as a dark reaction product produced by alkaline phosphatase (AP). Binding was measured as follows. The AP tagged ligand (in NBA) was incubated with the cortical neurons for 1 hr at 4° C., washed three times with HBH buffer, fixed with formaldehyde, and after washing again with HBH the neurons were incubated in a 67° C. oven to inactivate the endogenous AP. The tagged AP was then visualized using AP substrate 5-bromo-4-chloro-3-indolyl phosphate/nitro blue tetrazolium, which results in a dark precipitate. […] The addition of 100 nM Flag-PGRN displaced 10 nM AP-PGRN (FIG. 1C, middle panel).

[3] = molecular target: T4, human SorLA (GenBank Accession No. U60975) expressed in COS-7 cells (human, UniProt Q92673 82-2214); assay: AP staining of transfected COS-7 cells
T4 construct: whole, on cells

[4] = molecular target: T3, mouse SorCS1 (GenBank Accession No. …); assay: AP staining of transfected COS-7 cells
[5] = molecular target: T1, mouse sortilin-1 (Sort1; GenBank …); assay: saturation binding of AP-PGRN to Sort1-transfected COS-7 cells, bound AP activity (OD); Sort1-transfected COS-7 cells, FIG. 2B
Experimental: (§1) FIG. 2B is a graph depicting the saturation analysis of binding of AP-PGRN to COS-7 cells transfected with the PRGN-R, sortilin. The binding of AP-PGRN, measured by the optical density (OD units) of AP ligand bound, was determined as a function of ligand concentration (nM).
(§2) To determine the molecular nature of the neuronal binding site of PGRN, expression cloning experiments utilizing AP-PGRN as a tagged ligand were conducted. COS-7 (ATCC No. CRL-1651) cells were transfected with expression vectors containing mouse cDNAs using FUGENE® 6 according to manufacturer's specifications (Roche). An arrayed adult mouse brain cDNA library (OriGene) of 225,000 clones was screened in pools of 5,000 at a time, as well as a library consisting of 352 individual preparations of cDNAs encoding transmembrane proteins (GFC-transfection array panel, OriGene). […] In both cases, unlabeled 100 nM PGRN displaced binding (FIG. 2A, lower-right panel, and FIG. 3A, right panel).

[6] = molecular target: T1, mouse sortilin-1 (Sort1; GenBank …); assay: saturation binding of AP-tagged ligand to COS-7 cells transfected with sortilin (PGRN-R), bound AP read as optical density of the reaction product
Experimental: as §1, §2

[7] = molecular target: T2, rat sortilin (Sort1) on E18 rat …; assay: saturation binding of AP-PGRN to cultured cortical neurons (FIG. 1D); neuronal PGRN binding sites, identified by the filing as Sort1; cultured cortical neurons (FIG. 1D), species not stated

T4 sequence (Q92673 82-2214, one chain of several): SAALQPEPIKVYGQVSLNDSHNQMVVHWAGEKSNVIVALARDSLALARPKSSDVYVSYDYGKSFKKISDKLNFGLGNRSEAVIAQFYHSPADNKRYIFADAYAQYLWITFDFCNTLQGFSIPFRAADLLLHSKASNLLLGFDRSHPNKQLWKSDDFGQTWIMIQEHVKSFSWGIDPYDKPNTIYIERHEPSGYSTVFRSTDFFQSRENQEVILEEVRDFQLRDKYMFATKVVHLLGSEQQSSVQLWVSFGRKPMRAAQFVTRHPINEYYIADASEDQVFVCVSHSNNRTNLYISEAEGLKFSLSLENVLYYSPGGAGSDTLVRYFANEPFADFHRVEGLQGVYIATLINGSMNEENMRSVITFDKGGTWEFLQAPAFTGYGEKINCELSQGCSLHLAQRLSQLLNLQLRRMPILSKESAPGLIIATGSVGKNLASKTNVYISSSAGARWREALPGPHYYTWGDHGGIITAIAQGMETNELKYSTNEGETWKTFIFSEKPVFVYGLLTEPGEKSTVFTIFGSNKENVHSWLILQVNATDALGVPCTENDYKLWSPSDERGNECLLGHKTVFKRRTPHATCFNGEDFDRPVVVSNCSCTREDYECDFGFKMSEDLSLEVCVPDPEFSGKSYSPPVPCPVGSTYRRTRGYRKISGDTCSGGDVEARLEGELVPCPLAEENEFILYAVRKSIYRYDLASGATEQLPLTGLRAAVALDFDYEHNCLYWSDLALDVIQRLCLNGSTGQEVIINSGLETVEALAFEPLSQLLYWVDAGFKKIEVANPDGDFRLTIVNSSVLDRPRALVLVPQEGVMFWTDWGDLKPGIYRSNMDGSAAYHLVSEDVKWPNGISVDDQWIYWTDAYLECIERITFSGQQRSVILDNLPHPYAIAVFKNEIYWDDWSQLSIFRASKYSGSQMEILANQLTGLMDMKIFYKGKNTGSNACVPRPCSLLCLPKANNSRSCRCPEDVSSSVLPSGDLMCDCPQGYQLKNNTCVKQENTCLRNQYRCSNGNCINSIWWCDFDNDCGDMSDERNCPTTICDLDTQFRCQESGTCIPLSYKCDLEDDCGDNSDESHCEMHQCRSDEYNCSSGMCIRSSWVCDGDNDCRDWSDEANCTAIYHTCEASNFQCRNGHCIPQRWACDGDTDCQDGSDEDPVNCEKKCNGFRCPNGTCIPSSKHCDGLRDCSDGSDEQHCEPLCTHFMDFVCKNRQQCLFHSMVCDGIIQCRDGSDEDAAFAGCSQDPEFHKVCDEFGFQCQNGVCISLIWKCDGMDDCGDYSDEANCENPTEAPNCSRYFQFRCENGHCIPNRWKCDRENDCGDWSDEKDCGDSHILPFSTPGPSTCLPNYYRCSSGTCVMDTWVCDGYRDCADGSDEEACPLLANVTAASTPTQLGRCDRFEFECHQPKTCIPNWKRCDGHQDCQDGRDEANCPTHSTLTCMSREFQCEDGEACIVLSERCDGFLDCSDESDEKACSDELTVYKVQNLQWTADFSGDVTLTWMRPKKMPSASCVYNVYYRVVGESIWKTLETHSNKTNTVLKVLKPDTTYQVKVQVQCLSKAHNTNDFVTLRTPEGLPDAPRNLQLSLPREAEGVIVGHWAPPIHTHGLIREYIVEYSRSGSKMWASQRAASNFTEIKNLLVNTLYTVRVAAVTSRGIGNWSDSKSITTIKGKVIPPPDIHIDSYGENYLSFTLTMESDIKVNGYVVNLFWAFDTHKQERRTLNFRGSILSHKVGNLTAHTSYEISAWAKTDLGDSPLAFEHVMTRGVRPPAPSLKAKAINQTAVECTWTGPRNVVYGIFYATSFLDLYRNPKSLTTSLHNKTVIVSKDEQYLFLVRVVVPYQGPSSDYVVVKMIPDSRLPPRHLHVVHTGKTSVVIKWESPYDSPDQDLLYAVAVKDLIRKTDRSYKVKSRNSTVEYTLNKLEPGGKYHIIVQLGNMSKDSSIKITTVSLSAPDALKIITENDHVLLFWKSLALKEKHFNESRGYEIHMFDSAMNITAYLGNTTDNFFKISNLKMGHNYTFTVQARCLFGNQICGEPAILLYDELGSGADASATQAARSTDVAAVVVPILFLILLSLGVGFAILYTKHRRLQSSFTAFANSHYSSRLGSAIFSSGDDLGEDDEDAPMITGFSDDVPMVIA

Row | binding result [1] | binding result [2] | binding result [3] | binding result [4] | Kd [5] [nM] | EC50 (read off the curve) [6] [nM] | Kd [7] [nM] | Binder
1 | no binding (tested: 20 nM) | no binding (tested: 10 nM) |  |  |  |  |  | alkaline-phosphatase (AP) alone (enzyme, UniProt P05187 23-511, looked up, Control for the AP tag) IIPVEEENPDFWNREAAEALGAAKKLQPAQTAAKNLIIFLGDGMGVSTVTAARILKGQKKDKLGPEIPLAMDRFPYVALSKTYNVDKHVPDSGATATAYLCGVKGNFQTIGLSAAARFNQCNTTRGNEVISVMNRAKKAGKSVGVVTTTRVQHASPAGTYAHTVNRNWYSDADVPASARQEGCQDIATQLISNMDIDVILGGGRKYMFRMGTPDPEYPDDYSQGGTRLDGKNLVQEWLAKRQGARYVWNRTELMQASLDPSVTHLMGLFEPGDMKYEIHRDSTLDPSLMEMTEAALRLLSRNPRGFFLFVEGGRIDHGHHESRAYRALTETIMFDDAIERAGQLTSEEDTLSLVTADHSHVFSFGGYPLRGSSIFGLAPGKARDRKAYTVLLYGNGPGYVLKDGARPDVTESESGSPEYRQQSAVPLDEETHAGEDVAVFARGPQAHLVHGVQEQTFIAHVMAFAACLEPYTACDLAPPAGTTDAAHPG
2 |  |  | no binding (tested: 120 nM) | no binding (tested: 120 nM) | 6 | ~3 | ~20 | AP-PGRN (alkaline phosphatase fused to human progranulin, huPGRN, GenBank Accession No. BC010577) (ligand, Made in HEK293T cells from pAPtag-5; also called AP-PRGN; AP tagged ligand; not shown: alkaline phosphatase (AP) tag of expression vector pAPtag-5) TRCPDGQFCPVACCLDPGGASYSCCRPLLDKWPTTLSRHLGGPCQVDAHCSAGHSCIFTVSGTSSCCPFPEAVACGDGHHCCPRGFHCSADGRSCFQRSGNNSVGAIQCPDSQFECPDFSTCCVMVDGSWGCCPMPQASCCEDRVHCCPHGAFCDLVHTRCITPTGTHPLAKKLPAQRTNRAVALSSSVMCPDARSRCPDGSTCCELPSGKYGCCPMPNATCCSDHLHCCPQDTVCDLIQSKCLSKENATTDLLTKLPAHTVGDVKCDMEVSCPDGYTCCRLQSGAWGCCPFTQAVCCEDHIHCCPAGFTCDTQKGTCEQGPHQVPWMEKAPAHLSLPDPQALKRDVPCDNVSSCPSSDTCCQLTSGEWGCCPIPEAVCCSDHQHCCPQGYTCVAEGQCQRGSEIVAGLEKMPARRASLSHPRDIGCDQHTSCPVGQTCCPSLGGSWACCQLPHAVCCEDRQHCCPAGYTCNVKARSCEKEVVSAQPATFLARSPHVGVKDVECGEGHFCHDNQTCCRDNRQGWACCPYRQGVCCADRRHCCPAGFRCAARGTKCLRREAPRWDAPLRDPALRQLL
